According to patent publication US9187762B2, “Compositions and methods comprising sequences having hydroxyphenylpyruvate dioxygenase (HPPD) activity” (PIONEER HI-BRED INTERNATIONAL, INC., priority 2010, dated 2015):

Columns and labels:
T0 soybean plants = assay: Herbicide spray test of transgenic T0 HPPD soy plants using mesotrione, visual injury; format: in vivo; details: mesotrione 210 g ai/ha, eight days after treatment
From the text: (1987) Nature 327:70-73, U.S. Pat. No. 4,945,050) using a DuPont Biolistic PDS1000/He instrument. A selectable marker gene used to facilitate soybean transformation was a chimeric gene composed of the 35S promoter from Cauliflower Mosaic Virus (Odell et al. (1985) Nature 313:810-812), the hygromycin phosphotransferase gene from plasmid pJR225 (from E coli; Gritz et al. (1983) Gene 25:179-188) and the 3' region of the nopaline synthase gene from the T-DNA of the Ti plasmid of Agrobacterium tumefaciens. Another selectable marker used to facilitate soybean transformation was a chimeric gene composed of the S-adenosylmethionine synthase (SAMS) promoter (U.S. Pat. […] Pat. […] The selection agent used during the transformation process was either hygromycin or chlorsulfuron depending on the marker gene present. […] Pat. […] (1995) Genetics 139 (2), 921-939; Genbank L05363). In specific constructs, the SCP1 promoter of U.S. Pat. No. 6,072,050 was employed. Bombardments were carried out with linear DNA fragments purified away from any bacterial vector DNA. […] Bombarded soybean embryogenic suspension tissue was cultured for one week in the absence of selection agent, then placed in liquid selection medium for 6 weeks. […] Putative transgenic suspension culture tissue was maintained in selection medium for 3 weeks to obtain enough tissue for plant regeneration. Suspension tissue was matured for 4 weeks using standard procedures; matured somatic embryos were desiccated for 4-7 days and then placed on germination induction medium for 2-4 weeks. Germinated plantlets were transferred to soil in cell pack trays for 3 weeks for acclimatization. Plantlets were potted to 10-inch pots in the greenhouse for evaluation of herbicide resistance. […] Some T0 plants were not sprayed with herbicide and were all advanced to the next generation for testing.

maize HPPD [1] = assay: HPPD activity, coupled assay with HGD at 320 nm; substrate saturation kinetics (KM, kcat); format: biochemical
From the text: (§1) HPPD catalyzes the conversion of 4-hydroxyphenylpyruvate (HPP) to homogentisate. See, FIG. 1. […] However, the product of the ensuing reaction in tyrosine metabolism, maleylacetoacetate, absorbs strongly at 320 nm. Furthermore, the enzyme catalyzing that reaction is also a dioxygenase having similar mechanism and buffer requirements as HPPD, making homogentisate dioxygenase (HGD) an ideal partner in a coupled assay, as shown.
(§2) The HDG gene from Pseudomonas aeruginosa (Amaya (2004) Arch Biochem Biophys 421, 135-142) was cloned into pVER7062 and electroporated into E. coli strain BL21(DE3). The enzyme was produced by methods similar to those described for HPPD. The purified enzyme has a KM for homogentisate of 23 uM and a kcat of 100/sec, properties highly suited for instantly converting the homogentisate produced by HPPD to maleylacetoacetate.
(§3) HPPD activity was measured by placing an aliquot (e.g., 6 ul) of the substrate HPP at 50-fold the desired final concentration into the wells of a low UV-absorbing assay plate. Reactions were started by adding a mixture (e.g., 294 ul) containing 25 mM Hepes, pH 7, 2 mM ascorbate, 10 uM FeSO4, 1 to 100 uM HPP, 50 nM HGD and 5 to 240 nM HPPD. Absorbance at 320 nm was monitored continuously in a plate-reading spectrophotometer (Spectramax, Molecular Devices).
(§4) The catalytic performance of wild-type HPPD and variants generated by shuffling was assessed by determining the substrate saturation parameters. The Michaelis-Menten kinetics protocol of the Spectramax software was customized for HPP concentrations ranging from 3.33 uM to 100 uM, or up to 1 mM if required. Reaction rates were measured as described above for each concentration of HPP. The software returns values of KM and Vmax using the Lineweaver-Burke transformation of the Michaelis-Menten equation.

maize HPPD [2] = assay: ON rate ratio, OFF rate ratio and insensitivity parameter with herbicidal HPPD inhibitors; format: biochemical; details: for ON rate ratio: mesotrione 4 uM, 100 uM HPP, 70 to 90 second interval; for OFF ratio / ON ratio / ON × OFF Value: maize HPPD
From the text: To devise a parameter for detecting changes in inhibitor binding affinity, KD, one can utilize the relationship between KD and the rates of binding and release of inhibitor to and from the enzyme. [formula] Higher KD (reduced affinity or increased insensitivity) can be attained with a numerically smaller ON rate, a larger OFF rate or both. […] The ratio of the reaction rate with inhibitor to that without inhibitor during the 70 to 90 second interval of the reaction was termed the “ON rate ratio”. […] Incubations with the same concentrations of enzyme but no mesotrione were done in parallel. After 1 hr at room temperature, 5 to 10 ul of the enzyme-inhibitor complex was dispensed into the wells of the assay plate. Reactions were started with the addition of 290 to 295 ul of 25 mM Hepes, pH 7, 2 mM ascorbate, 10 uM FeSO4, 100 uM HPP and 50 nM HGD. The reactions were monitored at 320 nm for 12 min. Reaction velocity accelerates as inhibitor is released from the enzyme until a steady state is reached, during which the reaction velocity is constant. The ratio of the steady state rate in mixtures containing mesotrione (or other herbicidal inhibitor) to the initial velocity of mixtures lacking inhibitor is termed the “OFF rate ratio”. Another parameter to record is the time span required for the reactions with inhibitor to reach the steady state. […] It is not certain that the steady state attained in the OFF rate reactions actually represents an equilibrium where OFF rates are now equal to ON rates. Because substrate and inhibitors bind in the same site, the high concentration of substrate present may competitively trap the inhibitor and prevent it from binding again. To be sure that improvement in ON rates is being taken into account, the ON and OFF rate ratios were multiplied together and the product is termed the “insensitivity parameter”. […] The variants in Table 9 were grouped according to the parameter in which they are improved compared to wild type. The sequence positions are numbered according to the wild-type maize amino acid sequence of SEQ ID 1. Some substitutions are effective in multiple contexts, as discussed in the next section.

soybean HPPD = assay: HPPD activity, coupled assay with HGD; substrate saturation kinetics (KM, kcat); format: biochemical; details: substrate HPP; E. coli-expressed enzyme
From the text: as §1, §2, §3, §4
The amino acid substitutions identified during the shuffling and mutagenesis of the maize HPPD gene can be made at analogous positions in other HPPD proteins to improve their insensitivity toward HPPD-inhibiting herbicides. The sequences of native and improved maize HPPD were aligned with those of sorghum (Genbank accession number XP002453359) and soybean (Genbank accession number ABQ96868), and the motif substitutions were designed accordingly, as shown in FIG. 14. The genes designed for improvement were synthesized commercially, inserted into vector pVER7062 and expressed, purified and evaluated as in Example 1.

[3] = Elite soybean control, DNA none
[4] = substrate HPP, E. coli-expressed enzyme

CS(=O)(=O)c1ccc(C(=O)C2C(=O)CCCC2=O)c([N+](=O)[O-])c1 [mesotrione]
Mean Soybean Response (% Injury) (T0 soybean plants; [3]): 88% | Soybean % Injury Response Range (T0 soybean plants; [3]): 80-95% | Mean Soybean Response (% Injury) (T0 soybean plants; Jack soybean control, DNA none): 87% | Soybean % Injury Response Range (T0 soybean plants; Jack soybean control, DNA none): 75-95%

B1: D0223961: shuffled maize HPPD variant used for chloroplast transformation (protein)
chain: MGPTPTATAAGAAVAAASAAEQAAFRLVGHRNFVRFNPRSDRFHTLAFHHVELWCADAASAAGRFSFALGAPLAARSDLSTGNSAHASLLLRSGSLSFLFTAPYAHGADAATAALPSFSAAAARRFAADHGLAVRAVALRVADAEDAFRASVAAGARPAFGPVDLGRGFRLAEVELYGDVVLRYVSYPDGAAGEPFLPGFEGVASPGAADYGLSRFDHIVGNVPELAPAAAYFAGFTGFHEFAEFTTEDVGTAESGLNSMALANNSENVLLPLNEPVHGTKRRSQIQTFLDHHGGPGVQHIALASDDVLRTLREMQARSAMGGFEFLPPPPSDYYDGVRRCAGDVLTEAQINECQELGVMVDRDDQGVLLQIFTKPVGDRPTFFLEIIQRIGCMEKDEKGQEYQKGGCGGFGKKNFGQLFKSIEDYEKSLEAKQAAAAATAQGS
modifications: HPPD variant
notes: shuffled maize HPPD variant used for chloroplast transformation
Soybean % Injury Response Range (T0 soybean plants; T0 soybean plants expressing the HPPD gene variant (per DNA construct)): 0-80% | Mean Soybean Response (% Injury) (T0 soybean plants; T0 soybean plants expressing the HPPD gene variant (per DNA construct), 0=no effect, 100=dead plant): 26% | kcat (maize HPPD [1]; variants truncated to ala20 vs full length): 106 ± 12.4 min⁻¹

B2: Maize wt: synthetic maize wild-type HPPD protein, SEQ ID NO: 1, expressed in E. coli (protein)
chain: MGPTPTAAAAGAAVAAASAAEQAAFRLVGHRNFVRFNPRSDRFHTLAFHHVELWCADAASAAGRFSFGLGAPLAARSDLSTGNSAHASLLLRSGSLSFLFTAPYAHGADAATAALPSFSAAAARRFAADHGLAVRAVALRVADAEDAFRASVAAGARPAFGPVDLGRGFRLAEVELYGDVVLRYVSYPDGAAGEPFLPGFEGVASPGAADYGLSRFDHIVGNVPELAPAAAYFAGFTGFHEFAEFTTEDVGTAESGLNSMVLANNSENVLLPLNEPVHGTKRRSQIQTFLDHHGGPGVQHMALASDDVLRTLREMQARSAMGGFEFMAPPTSDYYDGVRRRAGDVLTEAQIKECQELGVLVDRDDQGVLLQIFTKPVGDRPTLFLEIIQRIGCMEKDEKGQEYQKGGCGGFGKGNFSQLFKSIEDYEKSLEAKQAAAAAAAQGS
modifications: Zea mays
Insensitivity parameter (ON rate ratio × OFF rate ratio) relative to that of maize wild-type HPPD (maize HPPD [2]; Isoxaflutole (diketonitrile)): 1.0 | Insensitivity parameter (ON rate ratio × OFF rate ratio) relative to that of maize wild-type HPPD (maize HPPD [2]; Sulcotrione): 1.0 | Insensitivity parameter (ON rate ratio × OFF rate ratio) relative to that of maize wild-type HPPD (maize HPPD [2]; Topramezone): 1.0 | Triple product (ON rate ratio × OFF rate ratio × kcat), relative to that of maize wild-type HPPD (maize HPPD [2]; inhibitor Isoxaflutole (diketonitrile)): 1.0 | Triple product (ON rate ratio × OFF rate ratio × kcat), relative to that of maize wild-type HPPD (maize HPPD [2]; inhibitor Mesotrione): 1.0 | Triple product (ON rate ratio × OFF rate ratio × kcat), relative to that of maize wild-type HPPD (maize HPPD [2]; inhibitor Sulcotrione): 1.0 | Triple product (ON rate ratio × OFF rate ratio × kcat), relative to that of maize wild-type HPPD (maize HPPD [2]; inhibitor Tembotrione): 1.0 | Triple product (ON rate ratio × OFF rate ratio × kcat), relative to that of maize wild-type HPPD (maize HPPD [2]; inhibitor Topramezone): 1.0 | Insensitivity parameter (ON rate ratio × OFF rate ratio) relative to that of maize wild-type HPPD (maize HPPD [2]; mesotrione): 1.0 | ON × OFF × kcat (maize HPPD [2]; mesotrione): 9.88 | Vmax MT (maximum reaction rate attained with mesotrione in the determination of OFF rate ratio) (maize HPPD [2]; mesotrione): 52 min⁻¹ | insensitivity parameter (ON rate ratio × OFF rate ratio) (maize HPPD [2]; mesotrione): 0.049 | ON rate ratio (maize HPPD [2]): 0.2 | ON rate ratio (maize HPPD [2]; listed as WT): 0.19 | OFF rate ratio (maize HPPD [2]; mesotrione, pre-formed enzyme-inhibitor complex): 0.26 | time span to attain steady state in OFF rate reaction (maize HPPD [2]; release of mesotrione from pre-formed complex, enzyme 240 nM): 280 s | Insensitivity parameter (ON rate ratio × OFF rate ratio) relative to that of maize wild-type HPPD (maize HPPD [2]; tembotrione): 1.0 | tolerance to mesotrione in T0 soybean plants (T0 soybean plants): moderate tolerance | kcat (maize HPPD [1]; N-terminal truncated variants of maize wild-type HPPD, single measurement): 166 min⁻¹ | Km (maize HPPD [1]; [4]): 5.2 µM | kcat (maize HPPD [1]; [4]): 207 min⁻¹ | kcat (maize HPPD [1]; substrate HPP, E. coli-expressed enzyme, listed as wild type): about 220 min^−1

B3: SEQ ID NO: 1 (protein)
chain: MGPTPTAAAAGAAVAAASAAEQAAFRLVGHRNFVRFNPRSDRFHTLAFHHVELWCADAASAAGRFSFGLGAPLAARSDLSTGNSAHASLLLRSGSLSFLFTAPYAHGADAATAALPSFSAAAARRFAADHGLAVRAVALRVADAEDAFRASVAAGARPAFGPVDLGRGFRLAEVELYGDVVLRYVSYPDGAAGEPFLPGFEGVASPGAADYGLSRFDHIVGNVPELAPAAAYFAGFTGFHEFAEFTTEDVGTAESGLNSMVLANNSENVLLPLNEPVHGTKRRSQIQTFLDHHGGPGVQHMALASDDVLRTLREMQARSAMGGFEFMAPPTSDYYDGVRRRAGDVLTEAQIKECQELGVLVDRDDQGVLLQIFTKPVGDRPTLFLEIIQRIGCMEKDEKGQEYQKGGCGGFGKGNFSQLFKSIEDYEKSLEAKQAAAAAAAQGS
modifications: Zea mays
OFF ratio (maize HPPD [2]; Mesotrione): 0.255 | ON ratio (maize HPPD [2]; Mesotrione): 0.189 | ON × OFF Value (maize HPPD [2]; Mesotrione): 0.048 | OFF ratio (maize HPPD [2]; Tembotrione): 0.037 | ON ratio (maize HPPD [2]; Tembotrione): 0.232 | ON × OFF Value (maize HPPD [2]; Tembotrione): 0.0087 | Km (maize HPPD [1]; maize HPPD, wt and variant): 5.2 µM | kcat (maize HPPD [1]; maize HPPD, wt and variant): 201

B4: Soy wt: wild-type soybean HPPD protein, SEQ ID NO: 2, expressed in E. coli (protein)
chain: MAIPMCNEIQAQAQAQAQAQPGFKLVGFKNFVRTNPKSDRFQVNRFHHIEFWCTDATNASRRFSWGLGMPIVAKSDLSTGNQIHASYLLRSGDLSFLFSAPYSPSLSAGSSAASSASIPSFDAATCLAFAAKHGFGVRAIALEVADAEAAFSASVAKGAEPASPPVLVDDRTGFAEVRLYGDVVLRYVSYKDAAPQAPHADPSRWFLPGFEAAASSSSFPELDYGIRRLDHAVGNVPELAPAVRYLKGFSGFHEFAEFTAEDVGTSESGLNSVVLANNSETVLLPLNEPVYGTKRKSQIETYLEHNEGAGVQHLALVTHDIFTTLREMRKRSFLGGFEFMPSPPPTYYANLHNRAADVLTVDQIKQCEELGILVDRDDQGTLLQIFTKPVGDRPTIFIEIIQRIGCMVEDEEGKVYQKGACGGFGKGNFSELFKSIEEYEKTLEAKRTA
modifications: Glycine max
Km (soybean HPPD): 3 µM | kcat (soybean HPPD): 1.67 s⁻¹
